Laboratory results reported in the nanobody polyreactivity screen of Harvey et al. (2022).

Assay: yeast display, Sf9 membrane polyspecificity reagent, FACS + sequencing; frameworks hold sequencing errors
Method in brief: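 After 36–48 hours of galactose induction, yeast (Saccharomyces cerevisiae BJ5465) displaying a synthetic nanobody library were stained at 4 °C for 1 hour with 10% biotinylated, detergent-solubilized Sf9 membrane reagent. Streptavidin microbeads enriched the stained cells before FACS sorting into low and high (top ~1%) gates on anti-HA and streptavidin fluorescence. Each clone's polyreactivity label reflects its gate of origin.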

Sequence | polyreactivity (PSR sort gate)
QVQLVESGGRLVQAGGSLRLSCAASGSTFGRYVMGWYRQTPGKERELVAAISYSGGRTYYADSVKLRFTISRDNAKNTVYLQMNSLNPEDTAVFYCATRVTLTRWLYDYWGQGSQVTVSS | high polyreactivity
QVQLVESGGRLVQAGGSLRLSCAASGSTFNRYAMGWYRQAPGKERELVAAISRGGSTTYADSVKGRFTISRDNAKHTVYLQMYSLKPEDTAVYYCAALYYSPRYWYDYWGLGTQVTVSS | high polyreactivity
QVQLVESGGRLVQAGGSLRLSCAASGSTFSRNARGWNRQAPGKERELVAAISRSSSRTYYADSVKGRFTISRDNAKNTVYLQMNSLKPEDTAVYYCAADGYVWTPYLYDYWGQGTQVTVSS | high polyreactivity
QVQLVESGGRLVQAGGSLRLSCAASGSTFTYNAMGWYRQAPGKESELVASISSGTTTYYADSVKGRFTISRDNAKNTVYVQMNSLKPEDTAVYYCAFDSWSRVQGWLAHNYDYWGQGTQVTVSS | low polyreactivity
QVQLVESGGRLVQAGGSLRLSCAASGSTFYDYAMGWYRQAPGKERELVASIDSGDSTNYADSVKGRFTISRDNAKNTVYLQMNSLKPEDTAVYYCAADYRAPLDYWGQGTQVTVSS | low polyreactivity
QVQLVESGGRLVQAGGSLRLSCAASGSTIVRNGMGWYRQAPGKERELVAAITRGGSTYYADSVKGRFTISRDNAKNTVYLQMNSLKPEDTAVYYCATYDPARSTQGYDYWGQGTQVTVSS | high polyreactivity
QVQLVESGGRLVQAGGSLRLSCAASGSTIYPNAMGWSRQAPGKERELVAAISRGTRTKYADSVKGRFTISRDNAKNTVYVQMNSLKPEDTAVYYCAADTGTGLDWGQGTQGTVSS | high polyreactivity
QVQLVESGGRLVQAGGSLRLSCAASGSTVGYNALGWYRQAPGKASELVAAITSRGSTNYADSVKGRFTISRDNAKNTVYLQMNSLKPEVTAVYYCAKATSSSEYGYDYWGQGTQVTVSS | high polyreactivity
QVQLVESGGRLVQAGGSLRLSCAASGSTYAMGWYRQAPGKERELVASITSRGGSTYYADSVKGRFTISRDNAKNTVYLQMNSLKPEDTAVYYCAARWYFSYIGYDYWGQGTQVTVSS | high polyreactivity
QVQLVESGGRLVQAGGSLRLSCAASGYIFSRNAMGSYRQAPGKERELVATISRGGSTYYGDSVKGRFTISRDNDKNTVYLQMNSLKPEDTAVYFCAATVVYWRSKSSVRRYDYWGQGTQVTVSS | high polyreactivity
QVQLVESGGRLVQAGGSLRLSGAASGITLGTYLMGWYRQAPGKEREMLAAISSGGSTYYADSVKGRFTISRDNAKNTVFLQMNSLKPEDTAVYYCAAQYYPYYDSRVSYDYWGQGTQVTVSS | low polyreactivity
QVQLVESGGRLVQAGGSLRLSSAASGGTFYRNARGWYRQAPGKERELVASISRTGGSTYYADSVKGRFTISRDNAKNTVYLQMNSLKQVDTAVYYCAKKQPRYSYFDNDYWGQGTQVTVSS | high polyreactivity
QVQLVESGGRLVQAGGSLRLTCAASGSTFSRYAMGWSRQAPGKERELVAAITGSGGNTYYADSVKGRFTISRDNAKNTVYLQMNSLKPEDTAVYYCAAEDYVGWYNFEYWGQGTQVTVSS | high polyreactivity
QVQLVESGGRLVQAGGSLRLTCAASGSTFTTYAMGWSRQAPGKERELVAAITSGSSTNYADSVKGRFTISRDNAKNTVYLQMNSLKPEDTAVYYCAVDREWPGYYYAISKMYYWGQGTQVTVSS | low polyreactivity
QVQLVESGGRLVQAGGSLRLTCDASGRTFDYNAMGWYRQAPWKERQLVAAITSRGGSTYYADSVKGRFTISRDNAKNTVYLQMNSLKPEDTAVYYCAAQHSVLAYFEYDYWGQGTQVTVSS | low polyreactivity
QVQLVESGGRLVQAGRSLRLSCAASGRTLKQYVMGWYRQAPGKERELVAAISRRGSSTYYADSVKGRFTISRDNAKNTVYLQMYSLKPEDTAVYYCAAPVYTTRHITAAYEEYGYWGQGTQVNVSS | high polyreactivity
QVQLVESGGRLVQSGGSLRLSCAASGRIFLYYTMGWYRQAPGKERELVATIRSGDSTNYADSVKGRFTISRDNAKNTVYLQMNSLKPEVTAVYYCAADWDIFQQGANGAPYDYWGQGTQVTVSS | low polyreactivity
QVQLVESGGSLVQAGGSHRLSCAASRSIFPPYAMGWYRPAAGKERELVAAITLRGGSTYYADSVKGRFTISRDNAKNTVYLQMNSLKPEDTAVYYCAAYKSAREYYWGQGTQVTVSS | high polyreactivity
QVQLVESGGSLVQAGGSLRLICAASGITFWPYAMGWYRPAPGKERELVAAINSGGDTYYADSVKGRFTISRDNAKNSVYLQMNILKPEDTAVYYCAKGRDWADEEGYEYWGQGTQVTVSS | low polyreactivity
QVQLVESGGSLVQAGGSLRLSCAASGYTIDSYGMGWYRQAPGKERELVAPIDWSGGSTYYADSVKGRFTIARDTAKNTVYLQKNSLIPDDSAVYYCNRDSAGPGDVILAYTGNDYWGQGTQVTVSS | low polyreactivity
QVQLVESGGSLVQSGGSLRLSCAASGSIFYRNAMGWYRQEPGKERELVASITSGGRTNYADSVKGRFTISRDNAKNTVYLQMNSLKPEDTAVYYCARGRASYTKSGPTPYTGYGYWGQGTQVTVSS | low polyreactivity
QVQLVESGGVLDQARGSLRLSCAASGRIFGYNAMGWYRQAPGKERELVAAISWGGGRTYYADSVKGRFTISRDNAKNTVYLQMNSLKPEDTAVYYCNALYVGYYDSMGYWGQGTQVTVSS | high polyreactivity

Sequence | polyreactivity (PSR sort gate)
QVQLVESGGVLDQGGGSLRLSCASSGITYRRYAMGWYRQAPGKERELVAANTYGGGSTYYADSVKGRFTISRDNAKNTVYLQMNSLKPADTAVFYCYARYSGGFGGGSKPDYYWGQGTQVTVAS | high polyreactivity
QVQLVESGGVLVQAGCSLRLSCAASGRTIPWYTMGWYRQAPRKERELVAAISNGGSTYYADSVKGRFTISRDNAKNTVYLQMNSLIPEDTAVYYCNSLVYKYIYNYDYWGQGTQVTVSS | high polyreactivity
QVQLVESGGVLVQAGGILRLSCAASGNIVVYYAMGWSRQAPGKERELVASITTSGGSTYYADSVKGRFTISRDNATNTVYFQMNSLKPEDTAVYYCAALYYYWLYYWGQGTQVTVSW | low polyreactivity
QVQLVESGGVLVQAGGRLGLSCAASGSTLRAYAMGWYRQATGKVRELVATISSGGRTYYADSVKGRFTISRDNAKNTVYLQMNSLKPEDTAVYYSAKREHGFFYYTYDYWGQGTQVTVSS | low polyreactivity
QVQLVESGGVLVQAGGRLSLICAASGRTFARYVMGWYRKAPGKERELVAAINSGGTTYYADSVKGRFTISRDNAKNTVYLQMNSLKPEDTAVYYCNARRGHYAYDYWGQGTQVTVSS | high polyreactivity
QVQLVESGGVLVQAGGSLRLSCAASGFIFETYVMGWYRQAPGKERELVDAISGGGSTYYADSVKGRFTISRDNAKKTVYLQMNSLKPEDTAVYYCAAKSGSFVHGGYQTPVYGSDYWGQGTQVTVSS | high polyreactivity
QVQLVESGGVLVQAGGSLRLSCAASGFIFYSYDMGWYRQAPGKERELDAAIRSDGSTYYADTVKGRFTISRDNAKNTVYLQMYSLKPEDTAVYDCAAKYGVRYWHYYSWTNDYWGQGTQVTVSS | low polyreactivity
QVQLVESGGVLVQAGGSLRLSCAASGFTFQAYTMGWYRQAPVKERELVAAISRSGGRTYYADSVKGRFTISRDNAKNTVYLQMNSLKPEDTAVYYCAKRTTYSDDYWGQGTQVTVSS | high polyreactivity
QVQLVESGGVLVQAGGSLRLSCAASGIIFFYNAMGWYRQAPGKERELVAAISARGGRTYYADSVKGRFTISRDNAKNTVYLQMNSLKPEDTAVYYCNAYRYGWEDMDYWGQGTQVTVSS | high polyreactivity
QVQLVESGGVLVQAGGSLRLSCAASGIIYYGYAMGWYRQAPRKERELVAAISRSGGSTYYADSVKGRFTISRDNAMNTVYFLMNSLKPEDTAVYYCAALVRTTSSYRYNFWGQGTQVTVSS | high polyreactivity
QVQLVESGGVLVQAGGSLRLSCAASGLIFATYAMGWSRQAPGKERELVAAISSNGDRTYYADSVKGGFTISRDNAKNTVYLQMNCLKPEDTAVYYCARLYLVQSRYPEMDFWGQGTQVTVSS | high polyreactivity
QVQLVESGGVLVQAGGSLRLSCAASGLIFSRYVMGWYRQAPGKERELVAAISRSGGSTYYADSVKGRFTISRDNAKNTVYLQMNSLKPEDTAVYYCNKLAPAPEADDYWGQGTQLTVSS | high polyreactivity
QVQLVESGGVLVQAGGSLRLSCAASGLTFGGNAKGWYRPAPGKERELVAAISWSDDTTDYADSVKGRFTISRDNAKNTVYLQMNSLKPEDTAVYYCAARLPFEYVDYWGQGTQVTVSS | low polyreactivity
QVQLVESGGVLVQAGGSLRLSCAASGLTFKWYAMGWYRQAPGKERELVAAITKSGGTTYADSVKGRFTISRDNAKNTVYLQMNSLKPEDTAVYYCAARYWRLWNTVRYEGDFSDGYWGQGTQVTVSS | high polyreactivity
QVQLVESGGVLVQAGGSLRLSCAASGNIFYAYAMGWYRQAPGKERELVAAISWSGDSTYYADSVKGRFTISRDNAKNTVNLQMNSLKPEETAVEYCAADSYRFYSGYYYWGQGTQVTVSS | low polyreactivity
QVQLVESGGVLVQAGGSLRLSCAASGRIFRYYAMGWYRQAPGKERELVAAISSDGSTDYADSVKGRFTISRDNAKNTVYLLMNSLKPEDTAVYYCAASVVSYGHDYWGQGTQVTVSS | low polyreactivity
QVQLVESGGVLVQAGGSLRLSCAASGRIFSSYAMGWNRHAPGKERELVATSRRADSTYYADSVKGRFTISRDNAKNTVYLQMNSLKPEDTAVYYCAADTRLSRLIHRYDYWGQGTQVTVSS | low polyreactivity
QVQLVESGGVLVQAGGSLRLSCAASGRTFFNYAMGWYRQAPGKESEFVASISWSDVITYYADSVKGRFTISRDNAKNTVYLQMNSLKQEDTAVYYCAASKVGGGEEYWGQGTQVTVSS | low polyreactivity
QVQLVESGGVLVQAGGSLRLSCAASGRTFFRYTMGWYRPAPGKERELVAAISRSDGSTYYADSVKGRFTISRDNAKNTVYLQMNSLKPEDTAVYYCAKSLPSGYYYWGQGTQVTVSS | low polyreactivity
QVQLVESGGVLVQAGGSLRLSCAASGRTFLYNAMGWYRQAPGKERELVAAISSRGARTYYADSVKGRFTISRDNAKKTVYLQMNSLKPEDTAVYYCAASYTTAYYRYDYWGQGTQVTVSS | high polyreactivity
QVQLVESGGVLVQAGGSLRLSCAASGRTFTPYTMGCDRPAPGKERELVAAISWSGGTTYYADSVMGRFTISRDNSKITVYLQMNSLKRVDTAVYYCAARVSRTCHGYYYFWGQGTQVTVSS | high polyreactivity
